Experimental data as given in US20140294898A1.

Target: human PD-L1 on cells (human) (UniProt Q9NZQ7)
Assay: cell-based or functional assay

Chain of human PD-L1 on cells (human) (Q9NZQ7 19-290): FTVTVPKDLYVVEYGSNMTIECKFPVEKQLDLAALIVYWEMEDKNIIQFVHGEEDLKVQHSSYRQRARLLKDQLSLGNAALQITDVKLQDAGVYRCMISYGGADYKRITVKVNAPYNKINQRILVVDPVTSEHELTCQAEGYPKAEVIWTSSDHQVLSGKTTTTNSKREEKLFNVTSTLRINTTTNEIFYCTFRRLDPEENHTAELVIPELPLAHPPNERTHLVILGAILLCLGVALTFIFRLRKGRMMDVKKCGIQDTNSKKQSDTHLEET

## anti-PD-L1 antibody (MDX-1105)
  IFNγ secretion by CMV-specific T cells (ELISA), EC50: 0.6 nM
